Results from US12723078 (University of Texas, dated 2026).

Legend:
LILRB5 = target: T1, LILRB5; experiment: ELISA
T1 construct: not the cell-surface form of MOLECULES; also called LILRB5 protein of the ELISA and Octet specificity tests; not shown: Fc or tag of the recombinant LILRB5 construct, if any

LILRA1 = target: T2, LILRA1 (human, UniProt O75019); experiment: ELISA
T2 construct: not the cell-surface form of MOLECULES; also called LILRA1 protein of the ELISA and Octet specificity tests

LILRB2 on reporter cells = target: T3, LILRB2 on reporter cells (UniProt Q8N423 22-597); experiment: flow cytometry on 2B4 cells expressing the LILR, PE
T3 construct: whole, on cells; The construct is not described
T3 sequence (Q8N423 22-597): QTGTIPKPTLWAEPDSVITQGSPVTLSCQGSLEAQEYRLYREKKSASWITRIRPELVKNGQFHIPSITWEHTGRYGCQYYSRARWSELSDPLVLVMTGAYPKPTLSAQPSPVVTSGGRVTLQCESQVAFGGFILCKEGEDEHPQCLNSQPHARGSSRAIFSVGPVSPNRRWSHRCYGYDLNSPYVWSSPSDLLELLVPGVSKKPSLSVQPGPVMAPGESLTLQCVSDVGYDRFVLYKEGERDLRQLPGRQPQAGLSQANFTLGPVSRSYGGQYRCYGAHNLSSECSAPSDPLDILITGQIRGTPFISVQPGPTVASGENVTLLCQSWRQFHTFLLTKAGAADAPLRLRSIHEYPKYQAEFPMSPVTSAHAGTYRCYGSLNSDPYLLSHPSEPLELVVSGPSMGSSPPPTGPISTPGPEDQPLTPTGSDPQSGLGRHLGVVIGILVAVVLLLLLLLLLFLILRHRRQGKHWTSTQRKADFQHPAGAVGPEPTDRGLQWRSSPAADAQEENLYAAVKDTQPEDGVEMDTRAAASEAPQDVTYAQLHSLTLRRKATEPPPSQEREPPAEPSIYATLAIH

LILRB3 on reporter cells = target: T4, LILRB3 on reporter cells (UniProt O75022 24-631, limits assumed); experiment: as above
T4 construct: whole, on cells

LILRB4 on reporter cells = target: T5, LILRB4 on reporter cells (UniProt Q8NHJ6 22-448); experiment: as above
T5 construct: whole, on cells

LILRB5 on reporter cells = target: T6, LILRB5 on reporter cells (UniProt O75023 24-590, limits assumed); experiment: as above
T6 construct: whole, on cells
T6 sequence (O75023 24-590 limits assumed): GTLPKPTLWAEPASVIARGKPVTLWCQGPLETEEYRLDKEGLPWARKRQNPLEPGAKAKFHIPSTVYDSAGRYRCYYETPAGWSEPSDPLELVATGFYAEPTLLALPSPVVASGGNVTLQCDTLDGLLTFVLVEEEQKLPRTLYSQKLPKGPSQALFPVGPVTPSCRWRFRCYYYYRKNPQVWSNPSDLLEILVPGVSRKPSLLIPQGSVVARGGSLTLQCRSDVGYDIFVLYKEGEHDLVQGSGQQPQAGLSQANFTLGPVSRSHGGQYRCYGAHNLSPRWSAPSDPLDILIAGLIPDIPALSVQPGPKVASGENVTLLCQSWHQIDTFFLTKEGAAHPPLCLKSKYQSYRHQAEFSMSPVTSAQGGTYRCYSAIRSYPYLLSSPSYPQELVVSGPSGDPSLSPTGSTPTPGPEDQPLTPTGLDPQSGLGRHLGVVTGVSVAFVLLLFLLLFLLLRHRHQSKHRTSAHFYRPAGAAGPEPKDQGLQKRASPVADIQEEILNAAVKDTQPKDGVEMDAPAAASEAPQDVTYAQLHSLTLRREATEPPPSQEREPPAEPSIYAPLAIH

LILRA1 on reporter cells = target: T7, LILRA1 on reporter cells (UniProt O75019 17-489, limits assumed); experiment: as above
T7 construct: whole, on cells
T7 sequence (O75019 17-489 limits assumed): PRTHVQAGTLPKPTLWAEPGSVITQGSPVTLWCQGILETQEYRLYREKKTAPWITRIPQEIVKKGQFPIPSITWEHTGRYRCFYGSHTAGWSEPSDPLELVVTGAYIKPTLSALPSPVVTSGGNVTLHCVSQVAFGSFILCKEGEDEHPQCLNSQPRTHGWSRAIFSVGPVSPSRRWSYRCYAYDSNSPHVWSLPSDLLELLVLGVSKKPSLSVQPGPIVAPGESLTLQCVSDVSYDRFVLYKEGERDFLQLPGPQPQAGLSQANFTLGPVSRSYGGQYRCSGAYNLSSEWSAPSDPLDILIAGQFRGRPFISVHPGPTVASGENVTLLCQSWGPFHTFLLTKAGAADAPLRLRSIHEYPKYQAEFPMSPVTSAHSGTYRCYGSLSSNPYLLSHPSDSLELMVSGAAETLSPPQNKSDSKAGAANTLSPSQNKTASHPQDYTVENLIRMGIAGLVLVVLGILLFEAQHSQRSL

[1] = target: T8, LILRB1 expressed on cell surface (human, UniProt Q8NHL6 24-650); experiment: as above
T8 construct: One entry is used for LILRB1 on reporter cells and on NK cells; also called LILRB1 NFAT-GFP reporter cell; LILRB1 reporter cells
T8 sequence (Q8NHL6 24-650 limits assumed): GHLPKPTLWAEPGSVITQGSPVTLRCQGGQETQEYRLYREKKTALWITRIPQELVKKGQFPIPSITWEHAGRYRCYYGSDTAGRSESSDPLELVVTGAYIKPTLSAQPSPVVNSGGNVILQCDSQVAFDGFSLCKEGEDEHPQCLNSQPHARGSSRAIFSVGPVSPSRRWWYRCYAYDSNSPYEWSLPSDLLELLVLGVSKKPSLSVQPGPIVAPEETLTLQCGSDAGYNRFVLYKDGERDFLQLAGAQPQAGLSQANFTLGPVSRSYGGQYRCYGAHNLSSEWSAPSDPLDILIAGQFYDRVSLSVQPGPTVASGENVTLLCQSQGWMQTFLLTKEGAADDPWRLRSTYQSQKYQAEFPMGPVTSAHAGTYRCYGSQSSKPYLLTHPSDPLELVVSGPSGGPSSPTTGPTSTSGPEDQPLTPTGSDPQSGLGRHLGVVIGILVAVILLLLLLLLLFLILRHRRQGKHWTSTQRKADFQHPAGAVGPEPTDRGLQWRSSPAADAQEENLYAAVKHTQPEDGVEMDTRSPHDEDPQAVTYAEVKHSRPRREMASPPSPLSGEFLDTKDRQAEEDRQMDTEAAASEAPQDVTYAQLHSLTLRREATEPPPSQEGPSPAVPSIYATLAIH

LILRA2 on reporter cells = target: T9, LILRA2 on reporter cells (UniProt Q8N149 24-483); experiment: as above
T9 construct: whole, on cells
T9 sequence (Q8N149 24-483): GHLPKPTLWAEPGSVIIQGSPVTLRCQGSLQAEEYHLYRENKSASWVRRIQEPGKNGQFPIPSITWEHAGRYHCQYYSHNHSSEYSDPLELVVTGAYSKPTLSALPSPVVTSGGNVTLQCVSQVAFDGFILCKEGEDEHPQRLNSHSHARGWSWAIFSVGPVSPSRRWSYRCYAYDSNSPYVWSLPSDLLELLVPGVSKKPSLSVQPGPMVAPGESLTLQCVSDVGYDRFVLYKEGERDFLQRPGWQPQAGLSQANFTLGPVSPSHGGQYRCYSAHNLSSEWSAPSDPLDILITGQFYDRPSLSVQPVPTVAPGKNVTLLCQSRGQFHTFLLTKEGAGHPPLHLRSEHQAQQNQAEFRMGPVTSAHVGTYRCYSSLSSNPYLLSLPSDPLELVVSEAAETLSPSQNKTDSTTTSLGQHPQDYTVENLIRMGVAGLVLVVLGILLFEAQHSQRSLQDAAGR

LILRA4 on reporter cells = target: T10, LILRA4 on reporter cells (UniProt P59901 24-499); experiment: as above
T10 construct: whole, on cells
T10 sequence (P59901 24-499): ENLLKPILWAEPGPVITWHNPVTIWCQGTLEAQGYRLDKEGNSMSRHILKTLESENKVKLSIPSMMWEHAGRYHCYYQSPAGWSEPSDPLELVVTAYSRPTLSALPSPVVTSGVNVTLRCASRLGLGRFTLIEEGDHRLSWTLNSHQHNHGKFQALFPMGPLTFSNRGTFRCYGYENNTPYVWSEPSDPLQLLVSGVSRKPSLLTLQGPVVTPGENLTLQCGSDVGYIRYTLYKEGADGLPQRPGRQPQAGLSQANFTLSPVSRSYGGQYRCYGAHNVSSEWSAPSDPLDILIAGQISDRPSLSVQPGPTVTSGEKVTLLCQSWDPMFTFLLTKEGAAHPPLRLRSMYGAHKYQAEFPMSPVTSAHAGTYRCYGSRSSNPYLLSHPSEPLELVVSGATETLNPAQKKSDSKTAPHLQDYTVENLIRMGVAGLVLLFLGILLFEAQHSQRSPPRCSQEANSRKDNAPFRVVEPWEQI

LILRA5 on reporter cells = target: T11, LILRA5 on reporter cells (UniProt A6NI73 42-299); experiment: as above
T11 construct: whole, on cells
T11 sequence (A6NI73 42-299): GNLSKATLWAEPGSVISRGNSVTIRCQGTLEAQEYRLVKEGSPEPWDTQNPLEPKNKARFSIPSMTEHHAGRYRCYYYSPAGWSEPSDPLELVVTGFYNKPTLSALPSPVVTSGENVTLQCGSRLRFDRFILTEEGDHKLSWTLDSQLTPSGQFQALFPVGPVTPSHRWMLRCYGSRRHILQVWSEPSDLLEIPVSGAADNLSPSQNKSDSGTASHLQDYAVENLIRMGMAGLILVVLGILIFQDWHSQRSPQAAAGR

LILRA6 on reporter cells = target: T12, LILRA6 on reporter cells (UniProt Q6PI73 24-481); experiment: as above
T12 construct: whole, on cells
T12 sequence (Q6PI73 24-481): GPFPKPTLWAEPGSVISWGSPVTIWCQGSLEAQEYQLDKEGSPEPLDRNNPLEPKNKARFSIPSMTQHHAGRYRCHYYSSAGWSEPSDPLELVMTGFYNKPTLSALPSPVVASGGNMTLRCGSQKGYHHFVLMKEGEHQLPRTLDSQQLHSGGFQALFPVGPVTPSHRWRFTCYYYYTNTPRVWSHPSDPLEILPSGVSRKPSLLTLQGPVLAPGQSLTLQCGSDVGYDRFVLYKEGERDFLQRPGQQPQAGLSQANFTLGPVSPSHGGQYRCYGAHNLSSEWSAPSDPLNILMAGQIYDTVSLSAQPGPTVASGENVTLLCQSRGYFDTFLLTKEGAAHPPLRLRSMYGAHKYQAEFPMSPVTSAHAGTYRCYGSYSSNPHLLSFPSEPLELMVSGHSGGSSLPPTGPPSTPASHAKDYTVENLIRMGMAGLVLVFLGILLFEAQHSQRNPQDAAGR

T1 sequence (chain, as listed by the source limits assumed): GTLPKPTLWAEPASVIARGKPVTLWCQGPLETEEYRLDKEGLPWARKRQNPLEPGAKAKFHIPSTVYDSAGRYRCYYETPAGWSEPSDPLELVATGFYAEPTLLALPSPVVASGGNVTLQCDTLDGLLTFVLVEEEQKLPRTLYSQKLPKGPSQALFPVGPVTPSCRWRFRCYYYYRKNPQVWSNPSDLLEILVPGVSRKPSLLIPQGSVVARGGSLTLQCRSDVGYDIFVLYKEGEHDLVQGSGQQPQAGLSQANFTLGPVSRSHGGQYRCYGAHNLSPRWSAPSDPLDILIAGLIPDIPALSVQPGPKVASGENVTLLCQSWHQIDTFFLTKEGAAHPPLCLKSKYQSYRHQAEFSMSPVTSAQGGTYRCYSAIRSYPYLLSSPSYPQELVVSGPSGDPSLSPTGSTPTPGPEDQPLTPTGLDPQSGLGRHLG
T2 sequence (O75019 17-461 limits assumed): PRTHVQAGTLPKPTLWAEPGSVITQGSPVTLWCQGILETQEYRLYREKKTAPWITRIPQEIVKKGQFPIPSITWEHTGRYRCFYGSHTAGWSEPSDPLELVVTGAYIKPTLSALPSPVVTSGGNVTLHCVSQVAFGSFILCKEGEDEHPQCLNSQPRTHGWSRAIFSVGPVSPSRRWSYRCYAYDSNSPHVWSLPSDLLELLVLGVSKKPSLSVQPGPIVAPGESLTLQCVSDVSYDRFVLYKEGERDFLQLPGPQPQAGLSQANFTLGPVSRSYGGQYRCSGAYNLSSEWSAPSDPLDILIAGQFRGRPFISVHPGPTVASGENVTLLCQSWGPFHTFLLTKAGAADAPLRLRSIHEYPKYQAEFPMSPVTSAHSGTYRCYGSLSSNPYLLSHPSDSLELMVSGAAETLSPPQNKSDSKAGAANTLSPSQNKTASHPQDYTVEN

- percent of cells in the gate (LILRB2 on reporter cells): 0.676%
- percent of cells in the gate (LILRB3 on reporter cells): 0.0698%
- percent of cells in the gate (LILRB4 on reporter cells): 0.181%
- percent of cells in the gate (LILRB5 on reporter cells): 0.29%
- percent of cells in the gate (LILRA1 on reporter cells): 0.124%
- percent of cells in the gate [1]: 99.2%
- percent of cells in the gate (LILRA2 on reporter cells): 0.11%
- percent of cells in the gate (LILRA4 on reporter cells): 0.0736%
- percent of cells in the gate (LILRA5 on reporter cells): 0.101%
- percent of cells in the gate (LILRA6 on reporter cells): 0.123%
B1: B1-176 rabbit antibody (antibody, V domains shown)
VH: QSLEESEGGLVKPGGTLTLTCTASGFSFSSSYCMCWVRQAPGKGLELIACIYTDSSGATYYASWAKGRFTISKSSSTTITLQMTSLTAADTATYFCARGWDYEDPGYTDTTYFSLWGPGTLVTVSS
VL: ELDLTQTPSSVEAAVGGTVTIKCQASQTIYTNLAWYQQKPGQPPNLLIYAASTLASGVSSRFKGSGSGTEFTLTISDLECADAATYYCQSYYGSSTTGNGFGGGTEVEIK
notes: Full-length rabbit IgG, kappa; Variable genes were cloned into a rabbit IgG expression vector and expressed in Expi293F cells
- binding result (LILRB5): no binding (tested: 10^3.0 ng/mL (1000 ng/mL))
- binding result (LILRA1): no binding (tested: 10^3.0 ng/mL (1000 ng/mL))
